Results as given in patent publication US20170204158A1 (Regeneron, published 2017).
Several values for one entry are separate records, joined by “and”; a condition that tells them apart may be missing. Identical values can stand only once.

Molecular target: T1, human ST2 (amino acids 1-556 of accession number NP_057316) on HEK293/hST2/NFkB-luciferase cells (human, UniProt Q01638 19-556)
T1 sequence (looked up): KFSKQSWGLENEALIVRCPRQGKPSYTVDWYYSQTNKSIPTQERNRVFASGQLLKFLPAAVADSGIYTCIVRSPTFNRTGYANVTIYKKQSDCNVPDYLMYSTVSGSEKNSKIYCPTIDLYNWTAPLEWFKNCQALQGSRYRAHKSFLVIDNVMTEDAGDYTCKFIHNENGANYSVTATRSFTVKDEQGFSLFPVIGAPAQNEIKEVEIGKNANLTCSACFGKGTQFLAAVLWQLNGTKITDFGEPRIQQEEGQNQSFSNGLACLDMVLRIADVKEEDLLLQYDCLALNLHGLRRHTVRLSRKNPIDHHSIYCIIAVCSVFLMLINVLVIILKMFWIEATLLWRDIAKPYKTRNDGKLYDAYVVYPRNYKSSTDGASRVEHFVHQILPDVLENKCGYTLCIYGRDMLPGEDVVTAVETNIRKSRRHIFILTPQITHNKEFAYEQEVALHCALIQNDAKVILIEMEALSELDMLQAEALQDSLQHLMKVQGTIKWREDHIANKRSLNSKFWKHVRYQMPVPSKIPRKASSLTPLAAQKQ
Assay: cell-based or functional assay

B1: monkey IL-33 expressed with C-terminal hexahistidine tag (MfIL-33-6His) (ligand)
chain: SITGISPITESLASLSTYNDQSITFALEDESYEIYVEDLKKDKKKDKVLLSYYESQHPSSESGDGVDGKMLMVTLSPTKDFWLQANNKEHSVELHKCEKPLPDQAFFVLHNRSFNCVSFECKTDPGVFIGVKDNHLALIKVDYSENLGSENILFKLSEILEHHHHHH
- EC50 (M), activation of HEK293/hST2/NFkB-luciferase cells: 1.7e-12 M and 1.3e-12 M
